The source of these data is US20030036169A1 (University of Texas, published 2003).

The chains are these.
B6: peptide corresponding to the extreme C-terminus of human Presenilin 1 (CMDQLAFHQFYI) (peptide)
peptide: CMDQLAFHQFYI
modifications: also: immobilized on SulfoLink beads
notes: Has an added N-terminal Cys and is immobilized on SulfoLink beads; also called Pres1; presenilin 1 column

No end group written: not given here.

The target in assay [1] is B6. In words: affinity chromatography of COS cell-expressed Mint 1 proteins on the immobilized presenilin 1 C-terminal peptide.
Assay [2] has as its target T1, Mint 1 (rat, UniProt O35430 1-839).
T1 construct: Full-length rat Mint 1 from pCMV5 vectors in transfected COS/HEK293 cells; also called Mints/X11 1; wild-type Mint 1
T1 sequence: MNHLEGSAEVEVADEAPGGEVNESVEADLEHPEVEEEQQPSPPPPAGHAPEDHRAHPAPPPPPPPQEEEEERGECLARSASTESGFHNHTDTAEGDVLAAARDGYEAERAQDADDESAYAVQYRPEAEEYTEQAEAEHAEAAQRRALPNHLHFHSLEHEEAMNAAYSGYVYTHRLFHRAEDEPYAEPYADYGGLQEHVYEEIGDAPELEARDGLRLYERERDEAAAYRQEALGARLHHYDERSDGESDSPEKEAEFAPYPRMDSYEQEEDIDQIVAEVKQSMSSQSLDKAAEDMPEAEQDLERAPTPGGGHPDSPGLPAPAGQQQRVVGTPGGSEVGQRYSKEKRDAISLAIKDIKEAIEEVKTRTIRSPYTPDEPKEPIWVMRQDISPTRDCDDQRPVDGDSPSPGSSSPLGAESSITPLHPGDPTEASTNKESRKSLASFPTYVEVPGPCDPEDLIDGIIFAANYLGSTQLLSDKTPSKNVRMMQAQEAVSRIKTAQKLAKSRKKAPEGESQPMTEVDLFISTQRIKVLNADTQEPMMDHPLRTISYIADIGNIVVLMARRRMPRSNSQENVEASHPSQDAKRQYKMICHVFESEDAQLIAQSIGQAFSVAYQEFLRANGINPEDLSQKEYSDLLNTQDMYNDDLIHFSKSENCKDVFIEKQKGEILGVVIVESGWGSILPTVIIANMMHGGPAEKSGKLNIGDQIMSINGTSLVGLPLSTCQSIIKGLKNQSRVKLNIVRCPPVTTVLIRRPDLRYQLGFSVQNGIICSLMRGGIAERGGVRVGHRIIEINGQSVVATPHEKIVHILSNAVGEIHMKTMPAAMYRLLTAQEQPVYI
Kind of assay: affinity chromatography on the immobilized HPV2 control peptide.

Assay [3] addresses T1, Mint 1. In words: affinity chromatography on the immobilized Drosophila presenilin C-terminal peptide.
Assay [4] concerns the target T1, Mint 1. In words: affinity chromatography of rat brain extract on the immobilized gp41 control peptide, immunoblot. Background: In western blotting, separated proteins are transferred to a membrane and probed.
Assay [5] addresses T2, Mint 3 (rat, UniProt O70248 1-569).
T2 construct: Endogenous rat brain protein or full-length rat Mint 3 from a pCMV5 vector; also called Mints/X11 3; pCMV-Mint 3
T2 sequence (looked up): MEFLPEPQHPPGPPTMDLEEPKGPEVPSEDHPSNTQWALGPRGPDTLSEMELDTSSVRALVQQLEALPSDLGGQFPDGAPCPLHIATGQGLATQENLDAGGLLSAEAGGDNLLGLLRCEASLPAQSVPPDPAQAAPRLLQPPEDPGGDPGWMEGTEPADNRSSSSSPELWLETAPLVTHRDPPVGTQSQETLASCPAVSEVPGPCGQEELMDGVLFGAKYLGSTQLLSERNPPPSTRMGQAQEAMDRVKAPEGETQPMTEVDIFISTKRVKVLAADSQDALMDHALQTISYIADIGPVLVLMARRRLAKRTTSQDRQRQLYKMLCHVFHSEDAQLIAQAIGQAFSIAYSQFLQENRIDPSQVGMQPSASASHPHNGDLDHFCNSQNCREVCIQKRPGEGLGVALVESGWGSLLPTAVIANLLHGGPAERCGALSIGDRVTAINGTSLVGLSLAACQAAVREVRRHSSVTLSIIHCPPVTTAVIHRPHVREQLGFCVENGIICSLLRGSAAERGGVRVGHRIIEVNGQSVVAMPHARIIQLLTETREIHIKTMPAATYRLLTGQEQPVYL
Kind of assay: affinity chromatography of rat forebrain membrane proteins on the gp41 control peptide.

Assay [6] addresses T3, Mint 2 (rat, UniProt O35431 1-750).
T3 construct: Endogenous rat brain protein or full-length rat Mint 2 from a pCMV5 vector; also called Mints/X11 2; pCMV-Mint 2
T3 sequence: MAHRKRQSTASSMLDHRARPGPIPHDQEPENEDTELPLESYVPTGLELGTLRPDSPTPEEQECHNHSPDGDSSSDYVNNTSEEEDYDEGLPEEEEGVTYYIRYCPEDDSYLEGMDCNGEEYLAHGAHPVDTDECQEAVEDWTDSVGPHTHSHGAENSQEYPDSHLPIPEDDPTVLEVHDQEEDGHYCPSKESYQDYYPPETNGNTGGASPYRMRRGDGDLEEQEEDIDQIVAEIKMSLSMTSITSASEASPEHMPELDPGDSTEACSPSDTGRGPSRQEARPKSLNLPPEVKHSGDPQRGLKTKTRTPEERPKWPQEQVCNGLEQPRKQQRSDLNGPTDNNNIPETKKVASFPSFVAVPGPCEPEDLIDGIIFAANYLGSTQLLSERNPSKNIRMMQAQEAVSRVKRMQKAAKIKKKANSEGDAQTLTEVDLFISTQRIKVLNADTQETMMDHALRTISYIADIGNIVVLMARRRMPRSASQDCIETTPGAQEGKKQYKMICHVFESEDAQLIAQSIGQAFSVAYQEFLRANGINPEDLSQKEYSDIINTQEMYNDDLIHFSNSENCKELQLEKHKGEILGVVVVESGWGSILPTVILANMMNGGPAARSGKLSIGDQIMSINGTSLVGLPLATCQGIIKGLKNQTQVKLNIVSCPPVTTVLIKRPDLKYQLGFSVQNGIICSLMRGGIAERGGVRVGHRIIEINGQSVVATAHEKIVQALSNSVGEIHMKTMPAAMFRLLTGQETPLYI
Described as above.

The target of assay [7] is T1, Mint 1. Kind of assay: affinity chromatography on the immobilized presenilin 2 C-terminal peptide.
The next assay addresses PSD95 (rat, UniProt P31016 1-724). Kind of assay: affinity chromatography of rat forebrain membrane proteins on the immobilized presenilin 1 C-terminal peptide, immunoblot.
The target in assay [8] is T3, Mint 2. Described as above.
The target in another assay is T4, synaptophysin 1 (Syp) (rat, UniProt P07825 1-307).
T4 construct: Negative control protein
T4 sequence (P07825 whole entry): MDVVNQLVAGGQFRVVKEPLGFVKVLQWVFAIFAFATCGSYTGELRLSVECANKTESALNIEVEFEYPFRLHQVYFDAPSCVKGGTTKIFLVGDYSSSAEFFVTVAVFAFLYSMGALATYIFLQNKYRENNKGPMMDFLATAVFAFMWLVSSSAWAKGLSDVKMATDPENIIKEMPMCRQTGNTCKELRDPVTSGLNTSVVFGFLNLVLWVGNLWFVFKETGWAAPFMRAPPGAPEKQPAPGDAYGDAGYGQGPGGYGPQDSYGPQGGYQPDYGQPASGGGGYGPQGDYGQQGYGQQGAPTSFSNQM
Kind of assay: affinity chromatography of rat forebrain membrane proteins on the presenilin 1 C-terminal peptide.

Assay [9] concerns the target T2, Mint 3. Kind of assay: affinity chromatography on the immobilized presenilin 1 C-terminal peptide, immunoblot.
The target in assay [10] is T1, Mint 1. The assay is described as above.
Assay [11] has as its target APP-Gal4/VP16 fusion protein (human; yeast, UniProt P05067 18-651; P04386 1-147; P06492 413-490; P05067 652-695). Kind of assay: cell-based or functional assay.
Assay [12] has as its target T2, Mint 3. In words: affinity chromatography on the immobilized APP tail peptide, immunoblot.
Assay [13] addresses T1, Mint 1. The assay is described as above.
Assay [14] concerns the target T3, Mint 2. Described as above.

Chain of PSD95 (P31016 whole entry): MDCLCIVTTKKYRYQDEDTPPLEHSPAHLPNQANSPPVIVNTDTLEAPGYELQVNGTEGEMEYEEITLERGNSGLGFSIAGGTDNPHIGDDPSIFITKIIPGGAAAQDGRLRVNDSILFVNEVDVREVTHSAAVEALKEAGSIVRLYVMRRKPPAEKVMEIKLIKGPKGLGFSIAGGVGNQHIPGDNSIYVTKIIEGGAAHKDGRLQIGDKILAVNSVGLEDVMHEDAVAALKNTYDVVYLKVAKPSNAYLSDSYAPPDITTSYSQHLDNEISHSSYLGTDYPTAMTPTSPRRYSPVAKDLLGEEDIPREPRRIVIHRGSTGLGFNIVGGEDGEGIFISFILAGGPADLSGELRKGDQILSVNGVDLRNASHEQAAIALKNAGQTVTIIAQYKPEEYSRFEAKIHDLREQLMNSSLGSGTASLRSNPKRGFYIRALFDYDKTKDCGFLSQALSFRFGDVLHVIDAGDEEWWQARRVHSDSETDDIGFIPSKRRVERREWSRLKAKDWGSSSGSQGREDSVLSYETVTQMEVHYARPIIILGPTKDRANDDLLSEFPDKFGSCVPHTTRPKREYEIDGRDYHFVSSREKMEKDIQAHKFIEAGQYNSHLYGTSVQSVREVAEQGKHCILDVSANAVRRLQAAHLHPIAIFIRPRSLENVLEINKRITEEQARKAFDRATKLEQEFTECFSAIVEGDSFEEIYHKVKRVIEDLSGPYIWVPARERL

B1: Mint 1 PDZ1* (other)
chain: MNHLEGSAEVEVADEAPGGEVNESVEADLEHPEVEEEQQPSPPPPAGHAPEDHRAHPAPPPPPPPQEEEEERGECLARSASTESGFHNHTDTAEGDVLAAARDGYEAERAQDADDESAYAVQYRPEAEEYTEQAEAEHAEAAQRRALPNHLHFHSLEHEEAMNAAYSGYVYTHRLFHRAEDEPYAEPYADYGGLQEHVYEEIGDAPELEARDGLRLYERERDEAAAYRQEALGARLHHYDERSDGESDSPEKEAEFAPYPRMDSYEQEEDIDQIVAEVKQSMSSQSLDKAAEDMPEAEQDLERAPTPGGGHPDSPGLPAPAGQQQRVVGTPGGSEVGQRYSKEKRDAISLAIKDIKEAIEEVKTRTIRSPYTPDEPKEPIWVMRQDISPTRDCDDQRPVDGDSPSPGSSSPLGAESSITPLHPGDPTEASTNKESRKSLASFPTYVEVPGPCDPEDLIDGIIFAANYLGSTQLLSDKTPSKNVRMMQAQEAVSRIKTAQKLAKSRKKAPEGESQPMTEVDLFISTQRIKVLNADTQEPMMDHPLRTISYIADIGNIVVLMARRRMPRSNSQENVEASHPSQDAKRQYKMICHVFESEDAQLIAQSIGQAFSVAYQEFLRANGINPEDLSQKEYSDLLNTQDMYNDDLIHFSKSENCKDVFIEKQKGEILAAVIVESGWGSILPTVIIANMMHGGPAEKSGKLNIGDQIMSINGTSLVGLPLSTCQSIIKGLKNQSRVKLNIVRCPPVTTVLIRRPDLRYQLGFSVQNGIICSLMRGGIAERGGVRVGHRIIEINGQSVVATPHEKIVHILSNAVGEIHMKTMPAAMYRLLTAQEQPVYI
notes: Produced in transfected COS or HEK293 cells; also called pCMV-Mint 1-PDZ1*
Regarding B1, the “fold decrease in binding against wild-type Mint 1” value in [1] is around 2 fold decrease.

B2: peptide corresponding to the extreme C-terminus of human HPV2 (poliovirus receptor-related protein 2; CGSLISRRAVYV) (peptide)
peptide: CGSLISRRAVYV
modifications: also: immobilized on SulfoLink beads
notes: Negative control peptide immobilized on SulfoLink beads; also called HPV2 control peptide
B2: in the assay with Mint 1 [2], the binding result was “no binding”.

B3: peptide corresponding to the extreme C-terminus of Drosophila Presenilin (CMEDLSAKQVFI) (peptide)
peptide: CMEDLSAKQVFI
modifications: also: immobilized on SulfoLink beads
notes: Has an added N-terminal Cys and is immobilized on SulfoLink beads; also called Drosophila presenilin C-terminal peptide
For the molecule B3, the binding result in the assay with Mint 1 [3] is “binds”.

B4: peptide derived from the gp41 glycoprotein (CWFSITNWLWYI) (peptide)
peptide: CWFSITNWLWYI
modifications: also: immobilized on SulfoLink beads
notes: Negative control peptide immobilized on SulfoLink beads; also called gp41 control peptide; Control
Regarding B4, the binding result with Mint 1 [4], with Mint 3 [5] and with Mint 2 [6] was “no binding” each time.

B5: peptide corresponding to the extreme C-terminus of human Presenilin 2 (CMDTLASHQLYI) (peptide)
peptide: CMDTLASHQLYI
modifications: also: immobilized on SulfoLink beads
notes: Has an added N-terminal Cys and is immobilized on SulfoLink beads; also called presenilin 2 C-terminal peptide
For the molecule B5, the binding result with Mint 1 [7] is recorded as “binds”.
For the molecule B6, the binding result is recorded as “binds” with PSD95; “binds” with Mint 2 [8]; “no binding” with synaptophysin 1 (Syp); “binds” with Mint 3 [9]; “binds” with Mint 1 [10].

B7: Mint 1 ΔPDZ (other)
chain: MNHLEGSAEVEVADEAPGGEVNESVEADLEHPEVEEEQQPSPPPPAGHAPEDHRAHPAPPPPPPPQEEEEERGECLARSASTESGFHNHTDTAEGDVLAAARDGYEAERAQDADDESAYAVQYRPEAEEYTEQAEAEHAEAAQRRALPNHLHFHSLEHEEAMNAAYSGYVYTHRLFHRAEDEPYAEPYADYGGLQEHVYEEIGDAPELEARDGLRLYERERDEAAAYRQEALGARLHHYDERSDGESDSPEKEAEFAPYPRMDSYEQEEDIDQIVAEVKQSMSSQSLDKAAEDMPEAEQDLERAPTPGGGHPDSPGLPAPAGQQQRVVGTPGGSEVGQRYSKEKRDAISLAIKDIKEAIEEVKTRTIRSPYTPDEPKEPIWVMRQDISPTRDCDDQRPVDGDSPSPGSSSPLGAESSITPLHPGDPTEASTNKESRKSLASFPTYVEVPGPCDPEDLIDGIIFAANYLGSTQLLSDKTPSKNVRMMQAQEAVSRIKTAQKLAKSRKKAPEGESQPMTEVDLFISTQRIKVLNADTQEPMMDHPLRTISYIADIGNIVVLMARRRMPRSNSQENVEASHPSQDAKRQYKMICHVFESEDAQLIAQSIGQAFSVAYQEFLRANGINPEDLSQKEYSDLLNTQDMYNDDLIHFSKSENCKDV
B7: the “potency of inhibition of transactivation relative to wild-type Mint 1 (normalized to expressed protein)” value in [11] is ~10 times more potent than wild-type Mint 1.

B8: immobilized cytoplasmic peptide derived from APP (CGYENPTYKFFEQMQN) (peptide)
peptide: CGYENPTYKFFEQMQN
modifications: not fully specified (residue 1); also: immobilized on SulfoLink beads via N-terminal Cys
notes: Coupled through the added N-terminal Cys to SulfoLink beads; also called immobilized cytoplasmic tail of APP; immobilized APP tail
On to B8, for which the binding result with Mint 3 [12], with Mint 1 [13] and with Mint 2 [14] was “binds” in each case.
